In the RNAGym collection of RNA variant scans (doi:10.1021/acssynbio.7b00057):

B1: Pistol ribozyme (parent)
chain: GGGUCGUUGUUCCAUAAUCGCGUGGAUAUGGCACGCAAGUUUCUACCGGGCACCGUAAAUGUCCGACUGGAGCCGUUCGGGCGGCUAUAAACAGACCUCAGGCCCGAAGCGUGGCGGCACCUGCCGCCGGUGGUAAAAAAGAUCGGAAGAGCACACGUCU

Variants of: B1
Test: aptazyme ON/OFF ratio, guanine; higher = stronger switching; co-transcriptional cleavage with and without guanine

| Variant | aptazyme ON/OFF ratio |
| --- | --- |
| U7A U10A C13G | 1.05 |
| U7A U10A C13U | 1.07 |
| U7A U8G U10C C12A | 1.33 |
| U7A U8G U10C C12G | 1.12 |
| U7A U8G U10C C12U | 1.5 |
| U7A U8G U10C U11G C12A C13U | 1.19 |
| U7A U8G U10C U11G C12A C13A | 1.42 |
| U7A U8G U10C U11G C12A C13G | 1.61 |
| U7A U8G U11A | 1.49 |
| U7A U8G U11C | 1.32 |
| U7A U8G U11G | 1.95 |
| U7A U8G U11A C12G C13U | 1.24 |
| U7A U8G U11A C12G C13A | 1.11 |
| U7A U8G U11A C12G C13G | 1.07 |
| U7A U8G U10C U11C C12U C13U | 1.17 |
| U7A U8G U10C U11C C12U C13G | 1.18 |
| U7A U8G U10C U11C C12U C13A | 1.45 |
| U7A U8G G9U U11G C12U C13G | 1.29 |
| U7A U8G G9U U11G C12U C13A | 1.18 |
| U7A U8G G9U U11G C12U C13U | 1.29 |
| U7A U10A U11A C12G | 1.18 |
| U7A U10A U11A C12A | 1.11 |
| U7A U10A U11A C12U | 1.2 |
| U7A U8G U10A C12G C13U | 1.21 |

| Variant | aptazyme ON/OFF ratio |
| --- | --- |
| U7A U8G U10A C12G C13G | 1.26 |
| U7A U8G U10A C12G C13A | 1.24 |
| U7A U8G U10C U11C C12A | 1.62 |
| U7A U8G U10C U11C C12U | 1.53 |
| U7A U8G U10C U11C C12G | 1.42 |
| U7A U8G U10A U11G C12A C13A | 1.28 |
| U7A U8G U10A U11G C12A C13G | 1.21 |
| U7A U8G U10A U11G C12A C13U | 1.08 |
| U7A U8G G9U U11A C13A | 1.38 |
| U7A U8G G9U U11A C13U | 1.44 |
| U7A U8G G9U U11A C13G | 1.25 |
| U7A U8G U11G C12U C13A | 1.63 |
| U7A U8G U11G C12U C13U | 1.22 |
| U7A U8G U11G C12U C13G | 1.29 |
| U7A U8G U10C U11A C12G | 1.48 |
| U7A U8G U10C U11A C12U | 1.27 |
| U7A U8G U10C U11A C12A | 1.5 |
| U7A U8G U10A U11A C12A C13G | 1.38 |
| U7A U8G U10A U11A C12A C13U | 1.12 |
| U7A U8G U10A U11A C12A C13A | 1.34 |
| U7A U8G U10C U11C C12A C13U | 1.49 |
| U7A U8G U10C U11C C12A C13A | 1.61 |
| U7A U8G U10C U11C C12A C13G | 1.3 |
| U7A U8G U10A U11G C12U C13G | 1.21 |

| Variant | aptazyme ON/OFF ratio |
| --- | --- |
| U7A U8G U10A U11G C12U C13U | 1.32 |
| U7A U8G U10A U11G C12U C13A | 1.15 |
| U7A U8G U11A C12U C13U | 1.18 |
| U7A U8G U11A C12U C13G | 1.35 |
| U7A U8G U11A C12U C13A | 1.5 |
| U7A U8G U10C U11A C13U | 1.21 |
| U7A U8G U10C U11A C13A | 1.45 |
| U7A U8G U10C U11A C13G | 1.21 |
| U7A U10A C12G C13A | 1.31 |
| U7A U10A C12G C13G | 1.25 |
| U7A U10A C12G C13U | 1.27 |
| U7A U8G U10C U11A C12A C13A | 1.27 |
| U7A U8G U10C U11A C12A C13G | 1.53 |
| U7A U8G U10C U11A C12A C13U | 1.37 |
| U7A U10A U11C C12A C13U | 1.11 |
| U7A U10A U11C C12A C13G | 1.03 |
| U7A U10A U11C C12A C13A | 1.1 |
| U7A U8G U10C C13G | 1.32 |
| U7A U8G U10C C13U | 1.4 |
| U7A U8G U10C C13A | 1.45 |
| U7A U8G U10A U11G C13G | 1.23 |
| U7A U8G U10A U11G C13U | 1.29 |
| U7A U8G U10A U11G C13A | 1.29 |
| U7A U8G U10C U11C C12G C13U | 1.19 |

| Variant | aptazyme ON/OFF ratio |
| --- | --- |
| U7A U8G U10C U11C C12G C13A | 1.07 |
| U7A U8G U10C U11C C12G C13G | 1.26 |
| U7A U8G G9U U11C C12U C13G | 1.15 |
| U7A U8G G9U U11C C12U C13A | 1.17 |
| U7A U8G G9U U11C C12U C13U | 1.07 |
| U7A U10A U11C C13U | 1 |
| U7A U10A U11C C13G | 1.03 |
| U7A U10A U11C C13A | 1.02 |
| U7A U10A U11A C13G | 1.15 |
| U7A U10A U11A C13A | 1.19 |
| U7A U10A U11A C13U | 1.16 |
| U7A U8G U11C C12G C13U | 1.2 |
| U7A U8G U11C C12G C13G | 1.17 |
| U7A U8G U11C C12G C13A | 1.02 |
| U7A U8G U10A U11C C12U C13U | 1.33 |
| U7A U8G U10A U11C C12U C13A | 1.14 |
| U7A U8G U10A U11C C12U C13G | 1.41 |
| U7A U8G G9U U11G C13U | 1.45 |
| U7A U8G G9U U11G C13G | 1.4 |
| U7A U8G G9U U11G C13A | 1.28 |
| U7A U8G U10C U11G C12U | 1.29 |
| U7A U8G U10C U11G C12A | 1.43 |
| U7A U8G U10C U11G C12G | 1.33 |
| U7A U10A U11C C12U | 1.03 |

| Variant | aptazyme ON/OFF ratio |
| --- | --- |
| U7A U10A U11C C12G | 1.1 |
| U7A U10A U11C C12A | 1.08 |
| U7A U8G U10G U11C C12U | 1.53 |
| U7A U8G U10G U11C C12A | 1.21 |
| U7A U8G U10G U11C C12G | 1.14 |
| U7A U8G U10A U11C C12G | 1.15 |
| U7A U8G U10A U11C C12U | 1.29 |
| U7A U8G U10A U11C C12A | 1.49 |
| U7A U8G G9U U11C C12G C13G | 1.32 |
| U7A U8G G9U U11C C12G C13A | 1.16 |
| U7A U8G G9U U11C C12G C13U | 1.27 |
| U7A U8G U10G C12G C13U | 1.21 |
| U7A U8G U10G C12G C13A | 1.26 |
| U7A U8G U10G C12G C13G | 1.3 |
| U7A U10A U11C C12G C13A | 1.08 |
| U7A U10A U11C C12G C13U | 1.1 |
| U7A U10A U11C C12G C13G | 1.17 |
| U7A U10A U11A C12U C13U | 1.22 |
| U7A U10A U11A C12U C13G | 1.26 |
| U7A U10A U11A C12U C13A | 1.15 |
| U7A U8G G9U U11C C13A | 1.26 |
| U7A U8G G9U U11C C13G | 1.06 |
| U7A U8G G9U U11C C13U | 1.38 |
| U7A U10A U11A C12G C13U | 1.25 |

| Variant | aptazyme ON/OFF ratio |
| --- | --- |
| U7A U10A U11A C12G C13G | 1.46 |
| U7A U10A U11A C12G C13A | 1.07 |
| U7A U8G U10G U11A C12G C13G | 1.46 |
| U7A U8G U10G U11A C12G C13U | 1.46 |
| U7A U8G U10G U11A C12G C13A | 1.24 |
| U7A U8G U10G U11A C12G | 1.59 |
| U7A U8G U10G U11A C12A | 1.09 |
| U7A U8G U10G U11A C12U | 1.33 |
| U7A U8G U10G U11A | 2.88 |
| U7A U8G U10G U11G | 1.44 |
| U7A U8G U10G U11C | 1.39 |
| U7A U8G U10C U11A C12U C13U | 1.18 |
| U7A U8G U10C U11A C12U C13G | 0.954 |
| U7A U8G U10C U11A C12U C13A | 1.35 |
| U7A U8G U10A C12U C13A | 1.32 |
| U7A U8G U10A C12U C13G | 1.25 |
| U7A U8G U10A C12U C13U | 1.42 |
| U7A U10A U11G | 1.35 |
| U7A U10A U11A | 1.21 |
| U7A U10A U11C | 1 |
| U7A U8G U10A C12A C13A | 1.17 |
| U7A U8G U10A C12A C13G | 1.23 |
| U7A U8G U10A C12A C13U | 1.48 |
| U7A U8G U10C C12G C13A | 1.19 |

| Variant | aptazyme ON/OFF ratio |
| --- | --- |
| U7A U8G U10C C12G C13U | 1.28 |
| U7A U8G U10C C12G C13G | 1.05 |
| U7A U10A U11G C12A | 1.13 |
| U7A U8G U10A U11A C12G | 1.13 |
| U7A U8G U10A U11A C12U | 1.38 |
| U7A U8G U10A U11A C12A | 1.47 |
| U7A U8G U10C U11A | 1.95 |
| U7A U8G U10C U11G | 1.29 |
| U7A U8G U10C U11C | 2.69 |
| U7A U8G U10G U11G C13A | 1.39 |
| U7A U8G U10G U11G C13U | 1.32 |
| U7A U8G U10G U11G C13G | 1.29 |
| U7A U8G U10A C13U | 1.12 |
| U7A U8G U10A C13A | 1.09 |
| U7A U8G U10A C13G | 1.26 |
| U7A U8G G9U U11C | 1.45 |
| U7A U8G G9U U11G | 1.94 |
| U7A U8G G9U U11C C12A | 1.23 |
| U7A U8G G9U U11C C12U | 1.54 |
| U7A U8G G9U U11C C12G | 1.26 |
| U7A U8G U10G C12U | 1.37 |
| U7A U8G U10G C12A | 1.17 |
| U7A U8G U10G C12G | 1.21 |
